Values of other authors in patent US8232228B2 (priority 2002, dated 2012).

B1: HarpinEa: Hypersensitive response elicitor protein from Erwinia amylovora, amino acid sequence SEQ. ID. No. 3 (protein)
chain: MSLNTSGLGASTMQISIGGAGGNNGLLGTSRQNAGLGGNSALGLGGGNQNDTVNQLAGLLTGMMMMMSMMGGGGLMGGGLGGGLGNGLGGSGGLGEGLSNALNDMLGGSLNTLGSKGGNNTTSTTNSPLDQALGINSTSQNDDSTSGTDSTSDSSDPMQQLLKMFSEIMQSLFGDGQDGTQGSSSGGKQPTEGEQNAYKKGVTDALSGLMGNGLSQLLGNGGLGGGQGGNAGTGLDGSSLGGKGLQNLSGPVDYQQLGNAVGTGIGMKAGIQALNDIGTHRHSSTRSFVNKGDRAMAKEIGQFMDQYPEVFGKPQYQKGPGQEVKTDDKSWAKALSKPDDDGMTPASMEQFNKAKGMIKRPMAGDTGNGNLQARGAGGSSLGIDAMMAGDAINNMALGKLGAA
modifications: Erwinia amylovora - harpinEa
In the case of B1, the “heat stable at 100° C.” value is given as “at least 10 minutes”.
